Measured values reported in article PMC12680531 (2026).
No end group written: not given here.

Target: 12A8
Assay: SPR

B1: biotinylated hTM4SF4 (T126-E140) peptide containing a GSAGGS spacer (peptide)
peptide: TWGYPFHDGDYLNDE
modifications: also: biotin, position not given here, GSAGGS spacer, position not given here
  Kd: 8.34 nM
